For experiment [1], the target named is T1, human IFN-ω (human, UniProt P05000 24-195).
T1 construct: Recombinant, HEK293; also called interferon omega
The experiment in a line: ProteOn SPR, cell supernatant.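 Further: each binding measurement used just a single antigen concentration.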
Description: (§1) To increase the assay throughput, only one concentration of the individual antigen was used.

Experiment [2] addresses T2, IFN-αC (human, UniProt P01566 24-189).
T2 construct: Recombinant, HEK293; also called IFN-α10
The experiment in a line: ProteOn SPR, cell supernatant.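 Further: each binding measurement used just a single antigen concentration.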
Description: as §1

In experiment [3] the target is T3, IFN-αF (human, UniProt P01568 24-189).
T3 construct: Recombinant, HEK293; also called IFN-α21
T3 chain: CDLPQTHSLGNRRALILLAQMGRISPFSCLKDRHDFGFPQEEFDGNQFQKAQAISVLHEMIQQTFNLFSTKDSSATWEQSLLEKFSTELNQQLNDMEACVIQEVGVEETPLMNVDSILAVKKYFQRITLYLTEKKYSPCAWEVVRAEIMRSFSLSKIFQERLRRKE
The experiment in a line: ProteOn SPR, cell supernatant.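 Further: each binding measurement used just a single antigen concentration.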
Description: as §1

Experiment [4] has as its target T4, IFN-αJ1 (human, UniProt P01567 24-189).
T4 construct: Recombinant, HEK293; also called IFN-α7
The experiment in a line: ProteOn SPR, cell supernatant.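 Further: each binding measurement used just a single antigen concentration.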
Description: as §1

Experiment [5] addresses T5, IFN-α4a (human, UniProt P05014 24-189).
T5 construct: Recombinant, HEK293; also called IFN-αM1
Kind of experiment: ProteOn SPR, cell supernatant.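 Further: each binding measurement used just a single antigen concentration.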
Description: as §1

Experiment [6] has as its target T6, IFN-αG (human, UniProt P01569 24-189).
T6 construct: Recombinant, HEK293; also called IFN-α5
The experiment in a line: ProteOn SPR, cell supernatant.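 Further: each binding measurement used just a single antigen concentration.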
Description: as §1

The target in experiment [7] is T7, IFN-αWA (human, UniProt P05015 24-189).
T7 construct: Recombinant, HEK293; also called IFN-α16
Kind of experiment: ProteOn SPR, cell supernatant.
Description: as §1

Experiment [8] has as its target T8, human IFN-ω (human, UniProt P05000 24-195).
T8 construct: also called interferon omega
The experiment in a line: ProteOn, one antigen concentration.
Description: as §1

Experiment [9] concerns the target T9, IFN-αC (human, UniProt P01566 24-189).
T9 construct: also called IFN-α10; alpha C
Kind of experiment: ProteOn, one antigen concentration.
Description: as §1

In experiment [10] the target is T10, IFN-αF (human, UniProt P01568 24-189).
T10 construct: also called IFN-α21; alpha F
T10 chain: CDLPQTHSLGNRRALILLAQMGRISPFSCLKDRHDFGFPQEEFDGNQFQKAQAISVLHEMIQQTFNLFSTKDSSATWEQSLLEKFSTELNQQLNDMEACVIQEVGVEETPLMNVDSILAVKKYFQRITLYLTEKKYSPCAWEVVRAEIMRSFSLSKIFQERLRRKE
Kind of experiment: ProteOn, one antigen concentration.
Description: as §1

Experiment [11] addresses T11, IFN-αJ1 (human, UniProt P01567 24-189).
T11 construct: also called IFN-α7; alpha J1
The experiment in a line: ProteOn, one antigen concentration.
Description: as §1

Experiment [12] concerns the target T12, IFN-α4a (human, UniProt P05014 24-189).
T12 construct: also called IFN-αM1
Kind of experiment: ProteOn, one antigen concentration.
Description: as §1

Experiment [13] addresses T13, IFN-αG (human, UniProt P01569 24-189).
T13 construct: also called IFN-α5; alpha G
The experiment in a line: ProteOn, one antigen concentration.
Description: as §1

For experiment [14], the target named is T14, IFN-αWA (human, UniProt P05015 24-189).
T14 construct: also called IFN-α16; alpha WA
Kind of experiment: ProteOn, one antigen concentration.
Description: as §1

Our source for the Kd values is patent US20150368338A1 (Janssen / Centocor, published 2015).

As usually defined, the Kd is the free concentration of one partner at which half of the binding sites on the other are occupied at equilibrium, for simple one-to-one binding. Higher therefore signals a looser complex.

B1: IFWM3379 (antibody, IgG1, V domains shown)
VH: EVQLVQSGAEVKKPGESLKISCKGSGYSFTSYWIGWVRQMPGKGLEWMGIIDPSDSDTRYSPSFQGQVTISADKSISTAYLQWSSLKASDTAMYYCARHPGLAWAPDFDYWGQGTLVTVSS
VL: DIQMTQSPSSLSASVGDRVTITCRASQSIDGSLNWYQQKPGKAPKLLIYFASSLQSGVPSRFSGSGSGTDFTLTISSLQPEDFATYYCQQSYDFPLTFGQGTKVEIK
notes: mAb; IgG1/kappa said of the parent and of selected mAbs; also called IFWB3114
On to B1, for which the dissociation constant Kd with human IFN-ω [1] was 0.015 nM; in the experiment with IFN-αC [2], 0.013 nM; with IFN-αF [3], 0.013 nM; with IFN-αJ1 [4], 0.033 nM; in the experiment with IFN-α4a [5], 0.072 nM; in the experiment with IFN-αG [6], 0.013 nM. The molecule further came in with a dissociation constant Kd with IFN-αWA [7] of 0.023 nM.

B2: IFWM3328 (antibody, V domains shown)
VH: EVQLVQSGAEVKKPGESLKISCKGSGYSFTSYWIGWVRQMPGKGLEWMGIIDPSDSDTRYSPSFQGQVTISADKSISTAYLQWSSLKASDTAMYYCARHPGLNWAPDFDYWGQGTLVTVSS
VL: DIQMTQSPSSLSASVGDRVTITCRASQSINNLNWYQQKPGKAPKLLIYWASSLQSGVPSRFSGSGSGTDFTLTISSLQPEDFATYYCQQGYDTPFTFGQGTKVEIK
notes: VH IFWH591, VL IFWL1064; converted mAb; also called IFWB3063
B2: the Kd in the experiment with human IFN-ω [8] amounted to 0.108 nM; with IFN-αC [9], 0.099 nM; with IFN-αF [10] it was 0.091 nM; with IFN-αJ1 [11] it was 0.36 nM; in the experiment with IFN-α4a [12] it was 0.41 nM; in the experiment with IFN-αG [13] it was 0.072 nM. In the experiment with IFN-αWA [14], this molecule registered a Kd of 0.207 nM.

B3: IFWM3339 (antibody, V domains shown)
VH: EVQLVQSGAEVKKPGESLKISCKGSGYSFTSYWIGWVRQMPGKGLEWMGIIDPSDSDTRYSPSFQGQVTISADKSISTAYLQWSSLKASDTAMYYCARHPGLNWAPDFDYWGQGTLVTVSS
VL: DIQMTQSPSSLSASVGDRVTITCRASQSIANNDLNWYQQKPGKAPKLLIHWASSLQSGVPSRFSGSGSGTDFTLTISSLQPEDFATYYCQQDYDWPLTFGQGTKVEIK
notes: VH IFWH591, VL IFWL1093; converted mAb; also called IFWB3074
As for B3, the Kd came out at 0.049 nM in the experiment with human IFN-ω [8]; 0.059 nM with IFN-αC [9]; 0.065 nM in the experiment with IFN-αF [10]; 0.161 nM with IFN-αJ1 [11]; 0.235 nM in the experiment with IFN-α4a [12]; 0.079 nM with IFN-αG [13]. For the same molecule, the dissociation constant (Kd) in the experiment with IFN-αWA [14] is 0.141 nM.

B4: IFWM3293 (antibody, IgG1, V domains shown)
VH: EVQLVQSGAEVKKPGESLKISCKGSGYSFTSYWIGWVRQMPGKGLEWMGIIDPSDSDTRYSPSFQGQVTISADKSISTAYLQWSSLKASDTAMYYCARHPGLAWAPDFDYWGQGTLVTVSS
VL: DIQMTQSPSSLSASVGDRVTITCRASQSIDEFLNWYQQKPGKAPKLLIYFASSLQSGVPSRFSGSGSGTDFTLTISSLQPEDFATYYCQQAHSFPLTFGQGTKVEIK
notes: mAb; IgG1/kappa said of the parent and of selected mAbs; also called IFWB3028
B4: the equilibrium dissociation constant (Kd) is 0.029 nM with human IFN-ω [1]; 0.025 nM with IFN-αC [2]; 0.017 nM in the experiment with IFN-αF [3]; 0.062 nM in the experiment with IFN-αJ1 [4]; 0.166 nM with IFN-α4a [5]; 0.037 nM in the experiment with IFN-αG [6]. This molecule also returned a Kd in the experiment with IFN-αWA [7] of 0.046 nM.

B5: IFWM3381 (antibody, IgG1, V domains shown)
VH: EVQLVQSGAEVKKPGESLKISCKGSGYSFTSYWIGWVRQMPGKGLEWMGIIDPSDSDTRYSPSFQGQVTISADKSISTAYLQWSSLKASDTAMYYCARHPGLAWAPDFDYWGQGTLVTVSS
VL: DIQMTQSPSSLSASVGDRVTITCRASQSIGSFLNWYQQKPGKAPKLLIYFASSLQSGVPSRFSGSGSGTDFTLTISSLQPEDFATYYCQQSYSIPITFGQGTKVEIK
notes: mAb; IgG1/kappa said of the parent and of selected mAbs; also called IFWB3116
Consider B5, for which the Kd came to 0.045 nM with human IFN-ω [1]; 0.079 nM in the experiment with IFN-αC [2]; 0.092 nM with IFN-αF [3]; 0.121 nM with IFN-αJ1 [4]; 0.171 nM in the experiment with IFN-α4a [5]; 0.053 nM with IFN-αG [6]. In the experiment with IFN-αWA [7], this molecule registered a Kd of 0.067 nM.

B6: IFWM3386 (antibody, IgG1, V domains shown)
VH: EVQLVQSGAEVKKPGESLKISCKGSGYSFTSYWIGWVRQMPGKGLEWMGIIDPSDSDTRYSPSFQGQVTISADKSISTAYLQWSSLKASDTAMYYCARHPGLAWAPDFDYWGQGTLVTVSS
VL: DIQMTQSPSSLSASVGDRVTITCRASQSIAEFLNWYQQKPGKAPKLLIYFASSLQSGVPSRFSGSGSGTDFTLTISSLQPEDFATYYCQQSIDFPLTFGQGTKVEIK
notes: mAb; IgG1/kappa said of the parent and of selected mAbs; also called IFWB3121
On to B6, for which the Kd with human IFN-ω [1] was determined as 0.026 nM; with IFN-αC [2], 0.031 nM; in the experiment with IFN-αF [3], 0.029 nM; in the experiment with IFN-αJ1 [4], 0.087 nM; with IFN-α4a [5], 0.103 nM; with IFN-αG [6], 0.026 nM. The same molecule yielded an equilibrium dissociation constant (Kd) with IFN-αWA [7] of 0.035 nM.
